Test results as given in PMC10505908.

T1: HMCES SRAP E127A E127A (human) (UniProt Q96FZ2)
T1 sequence: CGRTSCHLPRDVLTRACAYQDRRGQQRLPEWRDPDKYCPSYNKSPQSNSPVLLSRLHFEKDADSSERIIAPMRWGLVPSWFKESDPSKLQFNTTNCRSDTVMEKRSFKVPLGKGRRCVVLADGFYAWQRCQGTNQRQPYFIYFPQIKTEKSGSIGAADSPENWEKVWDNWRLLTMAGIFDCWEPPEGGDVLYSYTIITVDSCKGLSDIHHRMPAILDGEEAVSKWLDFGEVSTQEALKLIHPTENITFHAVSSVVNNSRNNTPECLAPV

T2: HMCES SRAP R98E R98E (human) (UniProt Q96FZ2)
T2 sequence: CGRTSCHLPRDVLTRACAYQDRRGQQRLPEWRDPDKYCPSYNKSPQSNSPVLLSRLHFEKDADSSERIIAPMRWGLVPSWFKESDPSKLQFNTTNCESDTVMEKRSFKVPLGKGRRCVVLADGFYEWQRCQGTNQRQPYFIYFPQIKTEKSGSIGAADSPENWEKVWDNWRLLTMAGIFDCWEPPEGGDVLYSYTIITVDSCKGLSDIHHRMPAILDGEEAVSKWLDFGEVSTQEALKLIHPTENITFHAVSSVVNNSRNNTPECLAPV

T3: HMCES SRAP E127A (human, UniProt Q96FZ2 2-270, E127A)
T3 sequence: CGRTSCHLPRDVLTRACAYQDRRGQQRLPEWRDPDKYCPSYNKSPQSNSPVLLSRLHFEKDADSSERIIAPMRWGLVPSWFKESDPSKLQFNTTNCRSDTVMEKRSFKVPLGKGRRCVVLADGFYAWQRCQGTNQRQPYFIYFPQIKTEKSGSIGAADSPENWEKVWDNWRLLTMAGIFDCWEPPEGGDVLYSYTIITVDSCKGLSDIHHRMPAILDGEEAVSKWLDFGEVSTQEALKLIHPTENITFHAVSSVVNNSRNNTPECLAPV


Key:
[1] = target: T1, HMCES SRAP E127A E127A (human); assay: covalent DPC formation, SDS-PAGE; conditions: N15 = AP site from dU by UDG
[2] = target: T2, HMCES SRAP R98E R98E (human); assay: covalent DPC formation, SDS-PAGE; conditions: N15 = AP site from dU by UDG
[3] = target: T3, HMCES SRAP E127A; assay: fluorescence polarization

| Molecule | binding signal (fraction crosslinked) [1] | binding signal (fraction crosslinked) [2] | binding result [3] |
| --- | --- | --- | --- |
| CCCAAAAAAAAAAANAAAAAAAAAAAACCC / GGGTTTTTTTTTTTTATTTTTTTTTTTGGG [30mer AP site dsDNA] | 0 | 0 | – |
| CCCAAAAAAAAAAATAAAAAAAAAAAACCC (ssDNA) [30mer dT-oligonucleotide] | – | – | binds |
